Measured values published in publication PMC11975286, “Functional dissection of the conserved C. elegans LEM-3/ANKLE1 nuclease reveals a crucial requirement for the LEM-like and GIY-YIG domains for DNA bridge processing”.

Columns and labels:
LEM-3(485-704) = target: T1, LEM-3(485-704) (Caenorhabditis elegans, UniProt G5EGA3 485-704); assay: EMSA; no divalent metal, 100 mM Na+; 10 mM Tris-HCl pH 7.5, 100 mM NaCl, 5% glycerol, 5 ng/ul poly(dI-dC), 4 C, 1 h; 8.3 nM HJ-X0-1 (0.13 nM for Kd); 6% native PAGE, 0.5x TBE, 4 C; details: protein: recombinant; tags: His-GST removed by TEV; label: 5'-Cy5 on X0-1; four-way junction of 4 strands, 1 copy each
T1 sequence: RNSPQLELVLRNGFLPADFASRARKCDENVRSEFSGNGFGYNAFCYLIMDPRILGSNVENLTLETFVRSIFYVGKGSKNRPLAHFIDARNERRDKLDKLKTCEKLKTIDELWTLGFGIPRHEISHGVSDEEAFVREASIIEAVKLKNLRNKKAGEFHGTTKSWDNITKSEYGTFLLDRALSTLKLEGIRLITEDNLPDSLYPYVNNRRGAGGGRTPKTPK

LEM-3(241-704) = target: T2, LEM-3(241-704) (Caenorhabditis elegans, UniProt G5EGA3 241-704); assay: EMSA; no divalent metal, 100 mM Na+; 0.13 nM HJ; cooperative (Hill) fit; 10 mM Tris-HCl pH 7.5, 100 mM NaCl, 5% glycerol, 5 ng/ul poly(dI-dC), 4 C, 1 h; 8.3 nM HJ-X0-1 (0.13 nM for Kd); 6% native PAGE, 0.5x TBE, 4 C; details: protein: recombinant; tags: His-GST removed by TEV; label: 5'-Cy5 on X0-1; four-way junction of 4 strands, 1 copy each
T2 sequence: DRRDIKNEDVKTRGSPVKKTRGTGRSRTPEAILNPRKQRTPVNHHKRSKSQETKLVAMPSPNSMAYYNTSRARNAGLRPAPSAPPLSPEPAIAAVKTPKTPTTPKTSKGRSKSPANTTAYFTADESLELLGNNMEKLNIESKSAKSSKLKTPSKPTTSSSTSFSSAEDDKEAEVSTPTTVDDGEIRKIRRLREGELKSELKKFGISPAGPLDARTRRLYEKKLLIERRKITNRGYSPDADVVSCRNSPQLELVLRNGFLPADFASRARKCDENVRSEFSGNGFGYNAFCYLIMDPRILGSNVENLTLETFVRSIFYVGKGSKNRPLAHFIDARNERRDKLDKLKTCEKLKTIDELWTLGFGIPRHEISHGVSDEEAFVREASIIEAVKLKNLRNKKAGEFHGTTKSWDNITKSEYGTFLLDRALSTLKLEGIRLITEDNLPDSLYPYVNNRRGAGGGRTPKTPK

B1: HJ-X0-1 (immobile Holliday junction) (structured_DNA)
DNA 1: ACGCTGCCGAATTCTACCAGTGCCTTGCTAGGACATCTTTGCCCACCTGCAGGTTCACCC
DNA 2: GGGTGAACCTGCAGGTGGGCAAAGATGTCCATCTGTTGTAATCGTCAAGCTTTATGCCGT
DNA 3: ACGGCATAAAGCTTGACGATTACAACAGATCATGGAGCTGTCTAGAGGATCCGACTATCG
DNA 4: CGATAGTCGGATCCTCTAGACAGCTCCATGTAGCAAGGCACTGGTAGAATTCGGCAGCGT
binding result (LEM-3(485-704)): no binding
Kd (LEM-3(241-704)): ~0.04 µM
